# Measurements from the supplement of paper PMC9112550, “Optimization of the antimicrobial peptide Bac7 by deep mutational scanning” (BMC Biology, 2022).
# Test system: Escherichia coli TOP10
# Assay: shrunken log2 fold change of peptide-encoding DNA abundance (4.5 h post-induction vs induction); higher = less antimicrobial activity (less host growth inhibition)
# Conditions: time post-induction: 4.5 h; library: site-saturation at positions 5, 18, 19, 20
# 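Also: peptides expressed intracellularly from a pBAD plasmid library in pooled LB shake-flask culture, induced with 0.3% L-arabinose, DNA abundance read by NGS, three biological replicates, DESeq2 with apeglm shrinkage.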
row,Sequence,shrunken log2 fold change
1,RRIRERPPRLPRPRPRPHQTPRP,-0.0225
2,RRIRCRPPRLPRPRPRPLVLPRP,-0.378
3,RRIRFRPPRLPRPRPRPSFAPRP,-0.156
4,RRIRTRPPRLPRPRPRPCTHPRP,-0.0873
5,RRIRCRPPRLPRPRPRPVWYPRP,-0.184
6,RRIRWRPPRLPRPRPRPNYHPRP,-0.486
7,RRIRQRPPRLPRPRPRPFQCPRP,-0.247
8,RRIRQRPPRLPRPRPRPSPAPRP,0.611
9,RRIRIRPPRLPRPRPRPMLTPRP,-0.00363
10,RRIRFRPPRLPRPRPRPSDSPRP,-0.21
11,RRIRSRPPRLPRPRPRPDENPRP,0.11
12,RRIRCRPPRLPRPRPRPPRVPRP,0.935
13,RRIRTRPPRLPRPRPRPWTKPRP,-0.00433
14,RRIRRRPPRLPRPRPRPCQNPRP,-0.0482
15,RRIRHRPPRLPRPRPRPYPCPRP,-0.152
16,RRIRIRPPRLPRPRPRPQMEPRP,-0.12
17,RRIRQRPPRLPRPRPRPCTHPRP,-0.502
18,RRIRYRPPRLPRPRPRPIMIPRP,-0.0191
19,RRIRSRPPRLPRPRPRPHGYPRP,-0.244
20,RRIRHRPPRLPRPRPRPMYQPRP,-0.00419
21,RRIRPRPPRLPRPRPRPFVAPRP,-0.186
22,RRIRNRPPRLPRPRPRPVYKPRP,-0.453
23,RRIRGRPPRLPRPRPRPTKYPRP,0.189
24,RRIRARPPRLPRPRPRPHHGPRP,-0.122
25,RRIRVRPPRLPRPRPRPPVMPRP,-0.105

row,Sequence,shrunken log2 fold change
1,RRIRHRPPRLPRPRPRPQGDPRP,0.0795
2,RRIRQRPPRLPRPRPRPTHTPRP,0.258
3,RRIRGRPPRLPRPRPRPFSQPRP,0.194
4,RRIRDRPPRLPRPRPRPGVGPRP,0.519
5,RRIRMRPPRLPRPRPRPMYNPRP,-0.815
6,RRIRARPPRLPRPRPRPMCVPRP,0.188
7,RRIRCRPPRLPRPRPRPPSIPRP,0.0499
8,RRIRYRPPRLPRPRPRPIYHPRP,-0.85
9,RRIRTRPPRLPRPRPRPLNRPRP,-0.173
10,RRIRFRPPRLPRPRPRPVREPRP,0.269
11,RRIRWRPPRLPRPRPRPRTCPRP,-0.045
12,RRIRCRPPRLPRPRPRPNNTPRP,-0.737
13,RRIRLRPPRLPRPRPRPHNQPRP,-0.479
14,RRIRDRPPRLPRPRPRPKRNPRP,0.136
15,RRIRERPPRLPRPRPRPILAPRP,-0.349
16,RRIRLRPPRLPRPRPRPSHFPRP,-0.0938
17,RRIRWRPPRLPRPRPRPYSCPRP,-0.705
18,RRIRIRPPRLPRPRPRPMCFPRP,-0.343
19,RRIRRRPPRLPRPRPRPLAYPRP,-0.00715
20,RRIRFRPPRLPRPRPRPNACPRP,-0.18
21,RRIRWRPPRLPRPRPRPPEGPRP,0.163
22,RRIRPRPPRLPRPRPRPTAFPRP,0.238
23,RRIRQRPPRLPRPRPRPGLLPRP,-0.0475
24,RRIRARPPRLPRPRPRPIGGPRP,-0.0402
25,RRIRLRPPRLPRPRPRPGTKPRP,0.2

row,Sequence,shrunken log2 fold change
1,RRIRKRPPRLPRPRPRPTLEPRP,0.132
2,RRIRRRPPRLPRPRPRPMFPPRP,0.118
3,RRIRMRPPRLPRPRPRPCPYPRP,-0.126
4,RRIRTRPPRLPRPRPRPTVWPRP,-0.049
5,RRIRLRPPRLPRPRPRPRLYPRP,-0.26
6,RRIRNRPPRLPRPRPRPLGHPRP,-0.262
7,RRIRHRPPRLPRPRPRPYWFPRP,-0.963
8,RRIRYRPPRLPRPRPRPEDFPRP,-0.00133
9,RRIRRRPPRLPRPRPRPNINPRP,-0.156
10,RRIRYRPPRLPRPRPRPSLRPRP,-0.9
11,RRIRWRPPRLPRPRPRPYWQPRP,-0.0738
12,RRIRKRPPRLPRPRPRPVPFPRP,-0.101
13,RRIRLRPPRLPRPRPRPIYQPRP,-0.385
14,RRIRTRPPRLPRPRPRPKMYPRP,-0.52
15,RRIRPRPPRLPRPRPRPAHQPRP,0.387
16,RRIRERPPRLPRPRPRPMVAPRP,0.138
17,RRIRWRPPRLPRPRPRPSPSPRP,0.375
18,RRIRERPPRLPRPRPRPMVRPRP,-0.019
19,RRIRDRPPRLPRPRPRPMKQPRP,-0.076
20,RRIRYRPPRLPRPRPRPRLWPRP,0.14
21,RRIRGRPPRLPRPRPRPIINPRP,0.0488
22,RRIRDRPPRLPRPRPRPLYDPRP,-0.107
23,RRIRYRPPRLPRPRPRPNHLPRP,-1.32
24,RRIRFRPPRLPRPRPRPRASPRP,0.33
25,RRIRWRPPRLPRPRPRPKFDPRP,-0.0572

row,Sequence,shrunken log2 fold change
1,RRIRWRPPRLPRPRPRPWHKPRP,-0.0356
2,RRIRFRPPRLPRPRPRPTDRPRP,0.243
3,RRIRIRPPRLPRPRPRPEHMPRP,-0.0778
4,RRIRKRPPRLPRPRPRPVTTPRP,0.0429
5,RRIRIRPPRLPRPRPRPWNLPRP,0.0133
6,RRIRYRPPRLPRPRPRPWGHPRP,-0.275
7,RRIRRRPPRLPRPRPRPMTPPRP,0.749
8,RRIRPRPPRLPRPRPRPASHPRP,0.0473
9,RRIRKRPPRLPRPRPRPPNMPRP,0.0839
10,RRIRTRPPRLPRPRPRPADKPRP,-0.257
11,RRIRIRPPRLPRPRPRPPNYPRP,-0.923
12,RRIRRRPPRLPRPRPRPDNKPRP,-0.233
13,RRIRRRPPRLPRPRPRPQKIPRP,0.0999
14,RRIRQRPPRLPRPRPRPYNIPRP,-0.395
15,RRIRDRPPRLPRPRPRPCKAPRP,-0.0139
16,RRIRIRPPRLPRPRPRPLPCPRP,-0.661
17,RRIRIRPPRLPRPRPRPDMKPRP,-0.0106
18,RRIRYRPPRLPRPRPRPLKDPRP,-0.00674
19,RRIRSRPPRLPRPRPRPKEKPRP,-0.00788
20,RRIRTRPPRLPRPRPRPIANPRP,0.207
21,RRIRYRPPRLPRPRPRPQACPRP,0.00187
22,RRIRVRPPRLPRPRPRPLRGPRP,0.764
23,RRIRHRPPRLPRPRPRPGFRPRP,0.237
24,RRIRIRPPRLPRPRPRPHSEPRP,-0.13
25,RRIRARPPRLPRPRPRPLRCPRP,0.242

row,Sequence,shrunken log2 fold change
1,RRIRKRPPRLPRPRPRPGWLPRP,0.593
2,RRIRTRPPRLPRPRPRPFPAPRP,0.299
3,RRIRCRPPRLPRPRPRPSEVPRP,-0.328
4,RRIRKRPPRLPRPRPRPHNKPRP,-0.0934
5,RRIRTRPPRLPRPRPRPLQQPRP,-0.0185
6,RRIRLRPPRLPRPRPRPDASPRP,0.101
7,RRIRWRPPRLPRPRPRPKGMPRP,-0.159
8,RRIRYRPPRLPRPRPRPPVQPRP,-0.0548
9,RRIRHRPPRLPRPRPRPNAFPRP,-0.14
10,RRIRYRPPRLPRPRPRPQYAPRP,-0.262
11,RRIRDRPPRLPRPRPRPNVQPRP,-0.131
12,RRIRERPPRLPRPRPRPDMDPRP,0.0527
13,RRIRCRPPRLPRPRPRPGGEPRP,0.538
14,RRIRVRPPRLPRPRPRPNRHPRP,-0.195
15,RRIRPRPPRLPRPRPRPMHIPRP,-0.105
16,RRIRDRPPRLPRPRPRPCYYPRP,-0.0165
17,RRIRRRPPRLPRPRPRPNPLPRP,0.269
18,RRIRCRPPRLPRPRPRPHVFPRP,0.161
19,RRIRSRPPRLPRPRPRPTQGPRP,0.36
20,RRIRNRPPRLPRPRPRPDIKPRP,-0.171
21,RRIRGRPPRLPRPRPRPQMIPRP,1.83
22,RRIRSRPPRLPRPRPRPPWDPRP,0.409
23,RRIRWRPPRLPRPRPRPANLPRP,-0.285
24,RRIRNRPPRLPRPRPRPCAFPRP,-0.071
25,RRIRRRPPRLPRPRPRPGLIPRP,0.238

row,Sequence,shrunken log2 fold change
1,RRIRQRPPRLPRPRPRPTCCPRP,-0.00785
2,RRIRKRPPRLPRPRPRPVLRPRP,0.0359
3,RRIRCRPPRLPRPRPRPLTKPRP,0.291
4,RRIRKRPPRLPRPRPRPHQSPRP,0.226
5,RRIRCRPPRLPRPRPRPVWFPRP,0.029
6,RRIRYRPPRLPRPRPRPVDFPRP,-0.226
7,RRIRFRPPRLPRPRPRPGLCPRP,0.606
8,RRIRIRPPRLPRPRPRPTQLPRP,0.31
9,RRIRARPPRLPRPRPRPPSDPRP,0.705
10,RRIRIRPPRLPRPRPRPWTEPRP,-0.843
11,RRIRRRPPRLPRPRPRPPRNPRP,1.28
12,RRIRVRPPRLPRPRPRPAAYPRP,0.00526
13,RRIRHRPPRLPRPRPRPGNKPRP,-0.089
14,RRIRFRPPRLPRPRPRPEVFPRP,0.181
15,RRIRHRPPRLPRPRPRPDVWPRP,0.15
16,RRIRNRPPRLPRPRPRPVCQPRP,-0.0808
17,RRIRLRPPRLPRPRPRPEPGPRP,0.35
18,RRIRARPPRLPRPRPRPPFHPRP,0.386
19,RRIRHRPPRLPRPRPRPRSDPRP,-0.123
20,RRIRGRPPRLPRPRPRPGWQPRP,0.0826
21,RRIRDRPPRLPRPRPRPMMLPRP,-0.0234
22,RRIRIRPPRLPRPRPRPWWRPRP,-0.0114
23,RRIRDRPPRLPRPRPRPVMSPRP,-0.257
24,RRIRHRPPRLPRPRPRPRYRPRP,-0.109
25,RRIRSRPPRLPRPRPRPCWLPRP,0.102
